Assay results published in patent US20110177064A1, “Compositions and Methods for Treatment of Ovarian Cancer” (priority 2010, published 2011).
Several values for one entry are separate records, joined by “and”; a condition that tells them apart may be missing. Equal entries are not always repeated.

Key:
[1] = system: COLO 720E human ovarian carcinoma xenografts; assay: Low-dose IMGN901 combination therapy of established subcutaneous COLO 720E xenografts; assay type: in vivo, mice; settings: single agent IMGN901 11.4 mg/kg qw×3
Method: (§1) Mice were inoculated with human ovarian cancer cell lines and allowed to become established (average tumor size of about 100 mm^3) prior to treatment. Conjugate dosing is described based on DM1 concentration. Efficacy is reported as both the % of tumor growth for treated vs. control (% T/C) and log cell kill (LCK) determined from the tumor doubling time and the tumor growth delay due to the treatment.
The anti-tumor effect of reduced doses of IMGN901 and paclitaxel plus carboplatin was evaluated in established subcutaneous COLO 720E xenografts. When the tumors reached about 100 mm^3 in size (14 days after tumor cell inoculation), the mice were randomly divided into groups of 6 animals each based on tumor volume. Mice were treated with the single agent IMGN901 at a dose of 11.4 mg/kg (qw×3) or the chemotherapeutic combination paclitaxel/carboplatin at either a high-dose (paclitaxel 20 mg/kg, qw×3/carboplatin, 100 mg/kg ip, single injection) or a low-dose (paclitaxel 10 mg/kg, qw×3/carboplatin, 100 mg/kg ip, single injection).

[2] = system: COLO 720E human ovarian carcinoma xenografts; assay: Dose-response anti-tumor activity in established subcutaneous COLO 720E xenografts; assay type: in vivo, SCID mice; parameters: key to activity (NCI standards): Percent T/C values less than or equal to 42% and/or LCK values of 0.5 or greater are considered active; percent T/C values less than 10% are considered highly active; settings: for complete regressions (CR) / partial regressions (PR) / mice remaining tumor free at the end of the study: 6 mice; for mice remaining tumor free at the end of the study: 119 days
Method: as §1
The anti-tumor effect of IMGN901 was evaluated in an established subcutaneous xenograft model of ovarian carcinoma. SCID mice were inoculated with COLO 720E ovarian carcinoma cells (1×10^7 cells/animal) injected subcutaneously into the right flank. (The COLO 720E human ovarian adenocarcinoma cell line was obtained from the European Collection of Cell Cultures (ECACC, catalog no. 93072111).) When the tumors reached about 100 mm^3 in size (10 days after tumor cell inoculation), the mice were randomly divided into four groups (6 animals per group). Mice were treated with the single agent IMGN901 at 6, 12 and 24 mg/kg, respectively, administered intravenously once weekly for three weeks (day 10, 17 and 24). A control group of animals received PBS administered intravenously at the same schedule. Tumor growth was monitored by measuring tumor size twice per week. Tumor size was calculated with the formula: length×width×height×½.

[3] = system: OVCAR-3 human ovarian carcinoma xenografts; assay: Anti-tumor effect in established subcutaneous OVCAR-3 ovarian carcinoma xenografts; assay type: in vivo, SCID mice; parameters: key to activity (NCI standards): Percent T/C values less than or equal to 42% and/or LCK values of 0.5 or greater are considered active; percent T/C values less than 10% are considered highly active
Method: as §1
The anti-tumor effect of IMGN901 was evaluated in an established subcutaneous xenograft model of ovarian carcinoma. SCID mice were inoculated with OVCAR-3 ovarian carcinoma cells (1×10^7 cells/animal) injected subcutaneously into the right flank. When the tumors reached about 100 mm^3 in size (24 days after tumor cell inoculation), the mice were randomly divided into three groups (6 animals per group). Mice were treated with the single agent IMGN901 at 6.5 mg/kg and 13 mg/kg, respectively, administered intravenously once weekly for three weeks (day 24, 31, […]). A control group of animals received PBS administered intravenously at the same schedule. Tumor growth was monitored by measuring tumor size twice per week. Tumor size was calculated with the formula: length×width×height×½.

[4] = system: COLO 720E human ovarian carcinoma xenografts; assay: Combination therapy of established subcutaneous COLO 720E xenografts; assay type: in vivo, Athymic nude mice; parameters: key to activity (NCI standards): Percent T/C values less than or equal to 42% and/or LCK values of 0.5 or greater are considered active; percent T/C values less than 10% are considered highly active
Excerpt: as §1
The anti-tumor effect of a combination of huN901-DM1 and paclitaxel plus carboplatin was evaluated in an established subcutaneous xenograft model of ovarian cancer. Athymic nude mice were inoculated with COLO 720E human ovarian carcinoma cells (1×10^7 cells/animal) injected subcutaneously into the right flank. When the tumors reached about 80 mm^3 in size (10 days after tumor cell inoculation), the mice were randomly divided into six groups (6 animals per group). Mice were treated with the single agent IMGN901 at a dose of 13 mg/kg once weekly for three weeks (day 10, 17 and 24 post tumor cell inoculation) administered intravenously. Two additional groups of mice were treated with the combination chemotherapy regimen paclitaxel/carboplatin at two dose levels: a high-dose group of paclitaxel (20 mg/kg iv, weekly for 3 weeks)/carboplatin (100 mg/kg ip, single injection) and a low-dose group of paclitaxel (10 mg/kg iv, weekly for 3 weeks)/carboplatin (100 mg/kg ip, single injection). Two additional groups were treated with the combination of IMGN901 and either high-dose or low-dose paclitaxel/carboplatin with the same doses and routes of administration as for individual treatments. Tumor growth was monitored by measuring tumor size twice per week. Tumor size was calculated with the formula: length×width×height×½.

[5] = 24 mg/kg iv once weekly for three weeks
[6] = IMGN901 13 mg/kg iv once weekly for three weeks
[7] = single-agent IMGN901 13 mg/kg iv once weekly for three weeks

B1: IMGN901 (conjugate, chains of the INN, looked up)
VH: QVQLVESGGGVVQPGRSLRLSCAASGFTFSSFGMHWVRQAPGKGLEWVAYISSGSFTIYYADSVKGRFTISRDNSKNTLYLQMNSLRAEDTAVYYCARMRKGYAMDYWGQGTLVTVSS
VL: DVVMTQSPLSLPVTLGQPASISCRSSQIIIHSDGNTYLEWFQQRPGQSPRRLIYKVSNRFSGVPDRFSGSGSGTDFTLKISRVEAEDVGVYYCFQGSHVPHTFGQGTKVEIK
modifications: mertansine (DM1) conjugate
[1]
  Response: inactive
  T/C: 62%
[1]; 11.4 mg/kg
  CR: no partial (PR) or complete regressions (CR) and 0/6
  PR: no partial (PR) or complete regressions (CR) and 1/6
[2]; 6 mg/kg iv once weekly for three weeks
  activity (NCI standards): inactive
[2]; 12 mg/kg iv weekly for 3 weeks
  activity (NCI standards): active
  mice exhibiting tumor regressions: Four of 6
  tumor growth inhibition value (T/C): 18%
  complete regressions (CR): 2
  partial regressions (PR): 4
  mice remaining tumor free at the end of the study: one
[2]; [5]
  activity (NCI standards): highly active (percent T/C values less than 10% are considered highly active)
  mice exhibiting tumor regressions: six
  tumor growth inhibition value (T/C): 0%
  complete regressions (CR): 6
  partial regressions (PR): 6
  mice remaining tumor free at the end of the study: four
[3]; IMGN901 6.5 mg/kg iv once weekly for three weeks
  activity (NCI standards): inactive
[3]; [6]
  activity (NCI standards): active
  tumor growth inhibition (T/C): 21%
[4]; [7]
  T/C: 32%
  activity (NCI standards): active
  complete regression: one of six
  partial tumor regressions: Two of six
[4]; single-agent IMGN901 13 mg/kg, end of study day 123
  tumor-free survivors: no tumor-free survivors
